# Assay results: patent US20250188193A1 (ROCKEFELLER UNIVERSITY, published 2025)
# Tests used:
# [1] = target: T1, anti-NP antibody 3B62, afucosylated IgG (monomeric, or as immune complex with NP-BSA) (chain 1 pos 82 (Asn297 EU): afucosylated N-glycan; the Fc is a disulfide-linked homodimer; in FIG. 11E it is complexed with NP-BSA through the Fab arms); test: competition ELISA: nanobody pre-complexed with monomeric afucosylated 3B62, then captured on coated FcγRI; the blocked ligand is FcγRI
# T1 construct: Immune complexes made with NP-BSA (27 conjugations) at a 10:1 molar ratio; also called monomeric 3B62; IgG immune complexes
# Experimental: Recombinant FcγR ectodomains were expressed in Expi-293F and purified with Ni-NTA resin as in previously described protocols (S. Chakraborty et al., Sci. Transl. Med., eabm7853 (2022)). […] Plates were then blocked with PBS plus 2% (w/v) BSA. IgG immune complexes were prepared by incubation of an anti-NP (4-hydroxy-3-nitrophenylacetyl) antibody 3B62 with NP-BSA (27 conjugations) at a 10:1 molar ratio for 1h at 4° C. […] IgG immune complexes or monomeric 3B62 were brought to a concentration of 20 ug ml⁻¹ or 2 μg/ml respectively and pre-complexed at a 1:1 (v/v) ratio for 1h at room temperature and then captured on FcγR-coated plates. Following 1h incubation, bound IgG was detected using a 1:5000 dilution of horseradish peroxidase (HRP)-conjugated goat F(ab′)₂ anti-human IgG (H+L) (Jackson Immunoresearch). Plates were developed with TMB (3,3′,5,5′-tetramethylbenzidine) two-component peroxidase substrate kit. Reactions were quenched with 1M phosphoric acid. Absorbance at 450 nm was recorded using a SpectraMax Plus spectrophotometer (Molecular Devices). Background absorbance was subtracted for samples, and % maximum binding was determined against an IgG or immune complex only control.
# [2] = target: T2, Rituximab G2 (galactosylated afucosylated glycoform); test: SPR (Biacore T200), 1:1 Langmuir kinetic fit
# T2 construct: Whole IgG1; also called G2-Rituximab; G2 glycoform of IgG1 Fc
# [3] = target: T3, aglycosylated 3B62 N297A mutant (aglycosylated (no N-glycan after N297A); the Fc is a disulfide-linked homodimer); test: SPR (Biacore T200)
# T3 construct: 297 is an EU position, not a position on the UniProt entry; also called aglycosylated N297A IgG1 mutant; aglycosylated IgG
# Experimental: Traces are raw data, while 1:1 Langmuir global kinetic fits are shown in black.
# Surface Plasmon Resonance (SPR) was performed on a Biacore T200 machine (Cytiva Life Sciences). In some experiments, purified IgG glycoforms diluted in HBS-EP+ were immobilized on the surface of a Protein A or Protein G CM5 sensor chip at 1000 RU (˜50 nM). Purified nanobodies were flowed over IgG-bound sensor chips at the indicated concentrations at 30 uL/minute for 60 seconds, followed by 600 seconds of dissociation. Sensor chips were regenerated with 10 mM Glycine-HCl pH 1.5.
# [4] = target: T4, IgG1 S2G2 glycoform (antibody clone not named); test: ELISA with B7; the concentration of the IgG1 glycoform is varied
# T4 construct: also called afucosylated form of IgG1
binder,measurement,setting,value
"X0 (VHH, also called clone X0; not shown: His tag and AviTag from the pET26-b(+) construct) VHH: QVQLQESGGGLVQAGGSLRLSCAASPGISRYKTMGWYRQAPGKERSFVAAITWGGLTYYADSVKGRFTVSRDNAKNTVYLQMNSLKPEDTAVYYCSVDGGTRADPYHYYWGQGTQVTVSS",IC50 (read off the curve),[1],~1000 nM
"mC11 (VHH, also called clone mC11; not shown: His tag and AviTag from the pET26-b(+) construct) VHH: QVQLQESGGGLVQAGGSLRLSCAASPGIYRYKTIAWYRQAPGKERSFVAAITWGGLTYRADSVKGRFTVSRDNAKNTVYLQMNSLKPEDTAVYYCSVDGGTRAQPVHYYWGQGTQVTVSS",IC50 (read off the curve),[1],~400 nM
"C11 (VHH, not shown: small tags and cut ends, also called clone C11; C11 parental clone) VHH: QVQLQESGGGLVQAGGSLRLSCAASGYISRYHTMGWYRQAPGKEREFVAGITWGGSTYYADSVKGRFTISRDNAKNTVYLQMNSLKPEDTAVYYCAVDGGTYADPYHYYWGQGTQVTVSS",Kd,[2],22800 nM
"B7 (VHH, not shown: small tags and cut ends, also called clone B7; nanobody B7) VHH: QVQLQESGGGLVQAGGSLRLSCAASGGISRYKTMGWYRQAPGKEREFVAGITWGGSTYYADSVKGRFTISRDNAKNTVYLQMNSLKPEDTAVYYCSVDGGTYADPYHYYWGQGTQVTVSS",binding result,[3],no binding (tested: top concentration 256 nM)
same,EC50 (read off the curve),[4],~0.4 µg/mL
